Test system: Aβ1-42 peptide, untreated (non-nitrated)

Question: How did the “degradation of Aβ (immunoblot with 6E10 after 2 h incubation)” value turn out when “recombinant insulin degrading enzyme (IDE)” was run?
Answer: Its value is “Analysis after 2 h of incubation showed decreased degradation of Aβ with increasing concentration of Sin-1”.

Reference: patent US20120192294
